Data as given in article doi:10.1101/2021.10.12.463902 (bioRxiv, 2021).
Like-named read-outs stand apart in the source and are kept apart here.

B1: human Eg5 kinesin-5 mini-tetramer with tail (hMBXt), TMR labelled (other, Homo sapiens | Drosophila melanogaster, UniProt P52732 1-374, looked up)
chain: MASQPNSSAKKKEEKGKNIQVVVRVRPFNLAERKASAHSIVESDPVRKEVSVRTGGLADKSSRKTYTFDMVFGASTKQIDVYRSVVAPILDEVIMGYNATIFAYGQTGTGKTFTMEGERSPNEEYTWEEDPLAGIIPRTLHQIFEKLTDNGTEFSVKVSLLEIYNEELFDLLNPSSDVSERLQMFDDPRNKRGVIIKGLEEITVHNKDEVYQILEKGAAKRTTAATLMNAYSSRSHSVFSVTIHMKETTIDGEELVKIGKLNLVDLAGSENIGRSGAVDKRAREAGNINQSLLTLGRVITALVERTPHVPYRESKLTRILQDSLGGRTRTSIIATISPASLNLEETLSTLEYAHRAKCILNKPEVNQKLTKKALAQSLQDQTNLHNKLIGEVMKISDQHSQAFVAKLMEQMQQQQLLMSKEIQTNLQVIEENNQRHKAMLDSMQEKFATIIDSSLQSVEEHAKQMHKKLEQLGAMSLPDAEELQNLQEELANERALAQQEDALLESMMMQMEQIKNLRSKNSISMSVHLNKMEESRLTRNHRIDDIKSGIQDYQKLGIEASQSAQAELTSQMEAGMLLEQDLKLDIPTGTTPQRKSYLYPSTLVRTEPREHLLDQLKRKQPELLMMLNSSENNKEETIPDVDVEEAVLGQYTEEPLSQEPSVDAGVDSSSIGGVPFFQHKKSHGKDKENRGINTLERSKVEETTEHLVTKSRLPLRAQINL
modifications: Tetra-methyl Rhodamine (TMR) on the single reactive cysteine in the neck linker (N358C)

Legend:
[1] = target: microtubules of porcine tubulin (GMPCPP or Paclitaxel stabilised, biotin and Alexa-Fluor-633 labelled) (porcine) (UniProt P02550); test: single-molecule TIRF motility assay on microtubules
Chain of microtubules of porcine tubulin (GMPCPP or Paclitaxel stabilised, biotin and Alexa-Fluor-633 labelled) (porcine) (P02550 whole entry, looked up, the tested form may be a part): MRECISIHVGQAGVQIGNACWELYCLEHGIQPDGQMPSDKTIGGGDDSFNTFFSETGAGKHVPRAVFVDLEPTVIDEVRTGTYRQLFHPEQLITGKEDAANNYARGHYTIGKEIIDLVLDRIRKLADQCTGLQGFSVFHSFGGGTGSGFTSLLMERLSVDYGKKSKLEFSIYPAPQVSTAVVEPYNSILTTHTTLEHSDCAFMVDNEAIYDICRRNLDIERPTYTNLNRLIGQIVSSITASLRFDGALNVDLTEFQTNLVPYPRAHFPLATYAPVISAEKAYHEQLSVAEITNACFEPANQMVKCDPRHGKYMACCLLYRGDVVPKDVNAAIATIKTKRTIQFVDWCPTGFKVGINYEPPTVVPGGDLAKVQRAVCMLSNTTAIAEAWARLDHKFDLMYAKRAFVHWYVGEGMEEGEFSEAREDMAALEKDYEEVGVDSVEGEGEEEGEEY

[2] = target: microtubules of porcine tubulin (GMPCPP or Paclitaxel stabilised, biotin and Alexa-Fluor-633 labelled) (porcine) (UniProt P02550); test: as above; remark: listed apart in the source
[3] = target: Drosophila melanogaster KLP61F BASS-XL (extended Bipolar assembly domain minifilament) (Drosophila melanogaster) (UniProt P46863); test: crystal structure
[4] = target: Taxol-stabilized microtubules (unlabeled, Alexa 647-labelled and biotinylated tubulin 50:2:1.5) (not stated (Pork or Bovine brains)) (UniProt P02550); test: single-molecule TIRF motility assay on microtubules
Chain of Taxol-stabilized microtubules (unlabeled, Alexa 647-labelled and biotinylated tubulin 50:2:1.5) (not stated (Pork or Bovine brains)) (P02550 whole entry, looked up): as the sequence (P02550 whole entry, looked up, the tested form may be a part) above

[5] = target: the molecule itself; test: as above

| Molecule | dwell time at MT plus ends, longer lifetime population [4] | dwell time at MT plus ends, shorter lifetime population [4] | other results |
| --- | --- | --- | --- |
| Drosophila KLP61F kinesin-5 mini-tetramer without tail (kMBX), neon green tagged (from UniProt P46863 1-369; P46863 597-833) | – | – | dwell time at MT plus ends [1]: 78 s; dwell time at MT plus ends [2]: 25 s |
| Drosophila melanogaster KLP61F BASS-XL (extended Bipolar assembly domain minifilament) (from UniProt P46863 620-804) (domain or fragment) | – | – | stoichiometry N [3]: 4 |
| human Eg5 kinesin-5 mini-tetramer without tail (hMBX), TMR labelled (from UniProt P52732 1-374; P46863 597-799) | 140 s | 14.6 s | – |
| human Eg5 kinesin-5 mini-tetramer with tail (hMBXt), TMR labelled (from UniProt P52732 1-374; P46863 597-799; P52732 913-1056) | 484 s | 16.4 s | – |
| B1 | – | – | binding result [5]: binds |
